Measured values: US20250361295A1 (ANTENGENE BIOLOGICS, published 2025)

Tests used:
human LILRB1 = molecular target: T1, human LILRB1 (human, UniProt Q8NHL6 24-650); experiment: FACS, 293F-hLILRB1 cells
T1 construct: whole, on cells; also called hLILRB1

human LILRB4 [1] = molecular target: T2, human LILRB4 (human, UniProt Q8NHJ6 22-448); experiment: FACS, 293F-hLILRB4 cells
T2 construct: whole, on cells; also called hLILRB4
Procedure: The subcloning plates were screened by protein or cell-based ELISA, and the subclones with good binding ability were expanded to 24-wells for confirmation tests. The specificity and cross-reactivity of these subclones were confirmed with FACS analysis. […] Fluorescent dye-conjugated secondary antibody was used to detect the binding of the primary antibody with the cells. Median fluorescence intensity (MFI) was measured by FACS analysis. […]

human LILRA2 = molecular target: T3, human LILRA2 (human, UniProt Q8N149 24-483); experiment: FACS, 293F-hLILRA2 cells
T3 construct: whole, on cells; also called hLILRA2
T3 sequence (Q8N149 24-483): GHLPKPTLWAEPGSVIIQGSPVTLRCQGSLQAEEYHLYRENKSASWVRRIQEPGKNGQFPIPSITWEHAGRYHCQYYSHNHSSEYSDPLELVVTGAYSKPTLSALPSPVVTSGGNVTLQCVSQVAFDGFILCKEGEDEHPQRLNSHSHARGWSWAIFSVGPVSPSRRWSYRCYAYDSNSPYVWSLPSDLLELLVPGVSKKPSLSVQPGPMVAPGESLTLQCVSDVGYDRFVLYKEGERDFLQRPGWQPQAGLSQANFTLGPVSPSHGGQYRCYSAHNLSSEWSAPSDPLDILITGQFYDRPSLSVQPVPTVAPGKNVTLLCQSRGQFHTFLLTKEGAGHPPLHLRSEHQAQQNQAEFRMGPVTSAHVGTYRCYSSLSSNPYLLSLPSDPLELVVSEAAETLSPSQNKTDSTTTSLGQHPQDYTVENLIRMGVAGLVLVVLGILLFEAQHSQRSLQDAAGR

human LILRB5 = molecular target: T4, human LILRB5 (human, UniProt O75023 24-590); experiment: FACS, 293F-hLILRB5 cells
T4 construct: whole, on cells; also called hLILRB5
T4 sequence (O75023 24-590): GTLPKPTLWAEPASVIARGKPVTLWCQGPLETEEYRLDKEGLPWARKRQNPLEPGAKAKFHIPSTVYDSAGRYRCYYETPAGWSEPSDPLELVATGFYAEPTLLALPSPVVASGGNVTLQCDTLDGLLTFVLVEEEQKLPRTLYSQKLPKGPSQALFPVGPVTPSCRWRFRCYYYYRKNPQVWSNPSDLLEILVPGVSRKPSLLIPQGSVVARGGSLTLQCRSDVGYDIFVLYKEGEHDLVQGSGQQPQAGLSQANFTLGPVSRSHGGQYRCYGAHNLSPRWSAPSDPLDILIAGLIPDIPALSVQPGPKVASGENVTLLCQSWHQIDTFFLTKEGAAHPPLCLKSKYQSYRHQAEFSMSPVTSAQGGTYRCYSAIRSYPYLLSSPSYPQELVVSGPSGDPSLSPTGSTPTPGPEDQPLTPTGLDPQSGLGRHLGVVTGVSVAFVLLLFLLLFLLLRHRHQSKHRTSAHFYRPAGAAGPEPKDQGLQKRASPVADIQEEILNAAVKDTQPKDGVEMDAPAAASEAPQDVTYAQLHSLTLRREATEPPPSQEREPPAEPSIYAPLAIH

human LILRA5 = molecular target: T5, human LILRA5 (human, UniProt A6NI73 42-299); experiment: FACS, 293F-hLILRA5 cells
T5 construct: whole, on cells; also called hLILRA5
T5 sequence (A6NI73 42-299): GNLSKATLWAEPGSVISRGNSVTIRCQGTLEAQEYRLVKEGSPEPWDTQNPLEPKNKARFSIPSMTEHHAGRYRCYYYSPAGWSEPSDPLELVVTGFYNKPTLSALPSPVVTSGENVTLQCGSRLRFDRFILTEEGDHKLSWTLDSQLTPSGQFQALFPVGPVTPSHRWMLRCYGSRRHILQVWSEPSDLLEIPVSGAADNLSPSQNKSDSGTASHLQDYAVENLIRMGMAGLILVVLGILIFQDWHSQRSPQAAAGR

human LILRB2 = molecular target: T6, human LILRB2 (human, UniProt Q8N423 22-597); experiment: FACS, 293F-hLILRB2 cells
T6 construct: whole, on cells; also called hLILRB2
T6 sequence (Q8N423 22-597): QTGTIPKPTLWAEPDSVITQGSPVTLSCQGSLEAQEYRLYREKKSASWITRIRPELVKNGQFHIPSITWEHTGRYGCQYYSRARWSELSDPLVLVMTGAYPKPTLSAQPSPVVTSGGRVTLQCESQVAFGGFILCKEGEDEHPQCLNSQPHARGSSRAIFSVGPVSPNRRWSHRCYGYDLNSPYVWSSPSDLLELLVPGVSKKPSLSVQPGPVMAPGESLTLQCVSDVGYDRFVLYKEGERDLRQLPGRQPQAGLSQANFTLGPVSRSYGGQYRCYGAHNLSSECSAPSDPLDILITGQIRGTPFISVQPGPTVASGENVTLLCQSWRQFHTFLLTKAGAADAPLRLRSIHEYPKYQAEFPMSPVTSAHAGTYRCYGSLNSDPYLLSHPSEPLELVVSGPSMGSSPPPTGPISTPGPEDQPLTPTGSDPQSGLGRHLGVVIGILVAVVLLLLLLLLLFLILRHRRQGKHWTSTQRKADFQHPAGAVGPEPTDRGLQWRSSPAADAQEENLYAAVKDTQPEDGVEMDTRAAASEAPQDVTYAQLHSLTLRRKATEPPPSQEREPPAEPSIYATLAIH

human LILRA3 = molecular target: T7, human LILRA3 (human, UniProt Q8N6C8 24-439); experiment: FACS, 293F-hLILRA3 cells
T7 construct: whole, on cells; also called hLILRA3
T7 sequence (Q8N6C8 24-439): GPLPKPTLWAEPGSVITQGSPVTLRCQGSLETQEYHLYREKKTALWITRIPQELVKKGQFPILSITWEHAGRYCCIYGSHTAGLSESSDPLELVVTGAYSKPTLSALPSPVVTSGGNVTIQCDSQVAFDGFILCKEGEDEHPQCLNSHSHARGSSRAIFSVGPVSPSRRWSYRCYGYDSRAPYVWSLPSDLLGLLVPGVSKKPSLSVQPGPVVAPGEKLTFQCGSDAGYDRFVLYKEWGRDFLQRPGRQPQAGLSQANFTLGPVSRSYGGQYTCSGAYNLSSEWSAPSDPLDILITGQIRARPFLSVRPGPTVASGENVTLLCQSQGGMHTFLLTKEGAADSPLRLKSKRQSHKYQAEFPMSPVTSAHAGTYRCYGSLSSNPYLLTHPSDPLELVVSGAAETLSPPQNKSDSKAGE

human LILRB3 [2] = molecular target: T8, human LILRB3 (human, UniProt O75022 24-631); experiment: FACS, 293F-hLILRB3 cells
T8 construct: whole, on cells; also called hLILRB3
T8 sequence (O75022 24-631): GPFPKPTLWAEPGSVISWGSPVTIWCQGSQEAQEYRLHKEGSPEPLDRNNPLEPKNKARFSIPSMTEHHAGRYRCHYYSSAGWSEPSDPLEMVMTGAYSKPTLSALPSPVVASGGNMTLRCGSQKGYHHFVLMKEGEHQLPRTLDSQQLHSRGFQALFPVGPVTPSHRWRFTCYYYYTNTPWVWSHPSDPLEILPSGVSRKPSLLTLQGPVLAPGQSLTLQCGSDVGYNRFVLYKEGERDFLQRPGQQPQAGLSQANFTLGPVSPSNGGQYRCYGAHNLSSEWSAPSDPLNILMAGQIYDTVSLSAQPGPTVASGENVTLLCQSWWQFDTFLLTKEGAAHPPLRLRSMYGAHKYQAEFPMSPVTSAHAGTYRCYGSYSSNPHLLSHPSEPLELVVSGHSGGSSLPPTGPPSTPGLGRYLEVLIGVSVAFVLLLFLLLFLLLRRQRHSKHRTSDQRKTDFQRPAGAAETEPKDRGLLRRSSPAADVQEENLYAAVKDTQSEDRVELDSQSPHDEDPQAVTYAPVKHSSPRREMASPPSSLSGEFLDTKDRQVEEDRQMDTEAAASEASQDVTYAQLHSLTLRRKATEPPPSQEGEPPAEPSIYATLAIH

human LILRA4 = molecular target: T9, human LILRA4 (human, UniProt P59901 24-499); experiment: FACS, 293F-hLILRA4 cells
T9 construct: whole, on cells; also called hLILRA4
T9 sequence (P59901 24-499): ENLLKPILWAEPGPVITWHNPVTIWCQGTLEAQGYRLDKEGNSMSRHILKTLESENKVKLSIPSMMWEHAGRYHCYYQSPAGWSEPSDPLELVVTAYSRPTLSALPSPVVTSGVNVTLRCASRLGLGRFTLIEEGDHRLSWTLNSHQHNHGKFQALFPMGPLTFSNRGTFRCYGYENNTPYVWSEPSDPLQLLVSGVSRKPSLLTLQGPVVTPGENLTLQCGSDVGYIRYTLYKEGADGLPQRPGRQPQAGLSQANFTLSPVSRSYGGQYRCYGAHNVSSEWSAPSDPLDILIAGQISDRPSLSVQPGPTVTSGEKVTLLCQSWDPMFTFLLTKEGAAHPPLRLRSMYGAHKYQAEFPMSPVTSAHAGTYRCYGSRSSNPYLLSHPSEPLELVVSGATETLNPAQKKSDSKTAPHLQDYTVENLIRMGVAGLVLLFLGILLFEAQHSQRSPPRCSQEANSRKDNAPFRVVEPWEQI

human LILRA1 = molecular target: T10, human LILRA1 (human, UniProt O75019 17-489); experiment: FACS, 293F-hLILRA1 cells
T10 construct: whole, on cells; also called hLILRA1
T10 sequence (O75019 17-489): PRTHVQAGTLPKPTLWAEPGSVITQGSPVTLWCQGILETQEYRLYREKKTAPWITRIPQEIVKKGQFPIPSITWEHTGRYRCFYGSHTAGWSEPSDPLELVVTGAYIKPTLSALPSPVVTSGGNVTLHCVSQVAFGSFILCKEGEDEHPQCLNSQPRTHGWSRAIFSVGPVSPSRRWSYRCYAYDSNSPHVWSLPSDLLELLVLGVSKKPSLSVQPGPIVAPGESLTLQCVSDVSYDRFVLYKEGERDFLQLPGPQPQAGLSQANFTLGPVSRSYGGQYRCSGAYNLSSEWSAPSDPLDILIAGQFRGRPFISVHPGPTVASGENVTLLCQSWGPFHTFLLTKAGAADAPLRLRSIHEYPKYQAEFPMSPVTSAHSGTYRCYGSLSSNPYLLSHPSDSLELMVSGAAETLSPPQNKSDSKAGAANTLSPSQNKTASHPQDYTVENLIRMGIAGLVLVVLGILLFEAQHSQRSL

human LILRB4 [3] = molecular target: T2, human LILRB4; experiment: cell-based or functional assay
human LILRB4 [4] = molecular target: T2, human LILRB4; experiment: cell-based or functional assay; remark: listed apart in the source
human LILRB3 [5] = molecular target: T8, human LILRB3; experiment: FACS, 293F-hLILRB3 cells; remark: listed apart in the source
Procedure: (§1) The protocol for FACS analysis is described as follows: [0438] (a) Cells were harvested by centrifugation at 300 g for 3 mins. […] (b) The cells were washed for 2 times with FACS buffer by centrifuging at 300 g for 3 mins and the supernatant was discarded. [0440] (c) Cell were resuspended and seeded into assay plate (2×10⁵ cells/well) in 50 μl FACS buffer. […] Cells were incubated with antibodies at 4° C. for 1 hour. […] (d) Step (b) was repeated and the cells were resuspended with 100 μl diluted 2nd antibody, incubated at 4° C. for 1 hour in the dark. [0442] (e) Step (b) was repeated and the cells were resuspended with 100 μl FACS buffer. The cells were kept in dark for FACS analysis.

human LILRB4 [6] = molecular target: T2, human LILRB4; experiment: cell-based or functional assay; remark: listed apart in the source
human LILRB4 [7] = molecular target: T2, human LILRB4; experiment: FACS, 293F-hLILRB4 cells; remark: listed apart in the source
Procedure: as §1

human LILRA6 protein = molecular target: T11, human LILRA6 protein (human, UniProt Q6PI73 24-447, limits assumed); experiment: ELISA, LILRA6 protein
T11 construct: protein for ELISA; construct not described; also called hLILRA6 protein
T11 sequence (Q6PI73 24-447 limits assumed): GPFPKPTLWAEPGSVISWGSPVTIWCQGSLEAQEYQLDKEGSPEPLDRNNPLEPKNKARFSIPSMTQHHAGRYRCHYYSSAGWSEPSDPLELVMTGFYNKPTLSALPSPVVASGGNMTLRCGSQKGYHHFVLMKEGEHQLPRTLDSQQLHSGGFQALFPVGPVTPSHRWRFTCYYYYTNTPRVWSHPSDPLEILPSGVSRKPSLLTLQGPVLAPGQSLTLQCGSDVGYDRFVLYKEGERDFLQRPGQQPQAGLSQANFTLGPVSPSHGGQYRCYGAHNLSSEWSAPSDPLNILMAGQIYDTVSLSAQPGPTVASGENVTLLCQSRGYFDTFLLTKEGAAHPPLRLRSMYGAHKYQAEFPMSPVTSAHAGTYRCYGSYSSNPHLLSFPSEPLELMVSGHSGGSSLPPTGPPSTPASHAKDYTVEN

T1 sequence (Q8NHL6 24-650): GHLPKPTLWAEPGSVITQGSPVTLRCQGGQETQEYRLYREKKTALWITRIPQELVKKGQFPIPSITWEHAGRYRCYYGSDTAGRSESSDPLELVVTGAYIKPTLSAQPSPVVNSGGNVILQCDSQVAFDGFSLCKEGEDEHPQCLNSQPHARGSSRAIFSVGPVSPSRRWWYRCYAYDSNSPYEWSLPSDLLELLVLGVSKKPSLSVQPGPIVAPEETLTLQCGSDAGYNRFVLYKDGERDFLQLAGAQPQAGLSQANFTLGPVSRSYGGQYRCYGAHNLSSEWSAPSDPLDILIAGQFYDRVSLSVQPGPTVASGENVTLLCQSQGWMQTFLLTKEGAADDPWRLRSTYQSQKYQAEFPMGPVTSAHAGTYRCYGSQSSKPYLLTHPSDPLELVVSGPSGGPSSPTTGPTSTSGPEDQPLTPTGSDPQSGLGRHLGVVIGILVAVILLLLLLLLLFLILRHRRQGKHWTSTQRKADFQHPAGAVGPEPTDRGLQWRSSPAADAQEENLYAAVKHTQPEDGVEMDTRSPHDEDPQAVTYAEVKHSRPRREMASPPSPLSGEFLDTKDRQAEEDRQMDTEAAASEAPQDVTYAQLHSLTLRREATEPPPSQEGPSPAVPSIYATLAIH

Row | Binder | MFI (human LILRB1) | MFI (human LILRB4 [1]) | MFI (human LILRA2) | MFI (human LILRB5) | MFI (human LILRA5) | MFI (human LILRB2) | MFI (human LILRA3) | MFI (human LILRB3 [2]) | MFI (human LILRA4) | MFI (human LILRA1) | ADCP (%) at 133.3 nM, macrophages and MV-4-11 cells (human LILRB4 [3]) | EC50 (nM), ADCC on THP-1 cells (human LILRB4 [4]) | Max cell cytotoxicity (%), ADCC on THP-1 cells (human LILRB4 [4]) | binding result (human LILRB3 [5]) | FcγR stimulation (TNF-α, pg/mL) (human LILRB4 [6]) | Fold change (Compared to isotype) (human LILRB4 [6]) | EC50 (human LILRB4 [7]) | Max MFI (human LILRB4 [7]) | binding result (human LILRA6 protein)
1 | 4-E6-E4-B12 (antibody, V domains shown, mouse monoclonal hybridoma antibody) VH: EVQLKESGAELVKPGASVKLSCKASGYTFTSHWMHWVKQRPGQGLEWIGEINPSNGRTNYNEKFTSKATLTVDQSSSTAYMQLSSLTSEDSAVYYCARGNLTTVVPFDYWGQGTALTVSS VL: DIVMTQSPSSLSASLGGKVTITCKASQDINKFIAWYQHKPGKGPRLLIHFTSTLQPGIPSRFSGSGSGRDYSFSISNLEPEDIATYFCLQYDLLLTFGGGTKLEIK | 23.6 MFI | 1530 MFI | 21.9 MFI | 21.4 MFI | 32.6 MFI | 58 MFI | 23.7 MFI | 27.1 MFI | 23.2 MFI | 24.4 MFI |  |  |  |  |  |  |  |  | 
2 | 44-F10-B6-D4 (antibody, V domains shown, mouse monoclonal hybridoma antibody) VH: EVHLVESGGGLVKPGGSLKLSCAASGFTFSSYAMSWVRQTPEKRLEWVATISSGGSYIYYPDSVKGRFTISRDNAKNTLYLQMSSLRSEDTAMYYCARQDWDGGDYYAMDYWGQGTSVTVSS VL: DIVMTQSPSSLAVSAGEKVTMSCKSSQSVLYSSNQKNFLAWYQQKPGQSPKLLIYWASTRESGVPDRFTGSGSGTDFTLTISSVQAEDLAVYYCHQYLSSLTFGAGTKLELK | 38.4 MFI | 84.9 MFI | 24.8 MFI | 26.6 MFI | 26.8 MFI | 38.2 MFI | 22.5 MFI | 31.6 MFI | 24.4 MFI | 25.6 MFI |  |  |  |  |  |  |  |  | 
3 | 42-C8-A12-F3-D11 (antibody, V domains shown, mouse monoclonal hybridoma antibody) VH: EVHLVESGGDLVKPGGSLKLSCAASGFTFSSHGMSWVRQTPDKRLEWVATISSGGIYTYHPDSVKGRFSISRDNAKKTLYLQMSSLKSEDTGIYYCTRGQVGNWYFDVWGAGTTVTVSS VL: DIVITQSPAIMSASPGEKVTINCSASSSVSYMHWFQQTPGTSPKLWIYSTSNLASGVPARFSGSGSGTFYSLTISRMEAEDAATYYCQQRSSYPLTFGAGTKLELK | 29.6 MFI | 1290 MFI | 28.1 MFI | 22.2 MFI | 27.9 MFI | 34.5 MFI | 24.5 MFI | 602 MFI | 27.2 MFI | 27.3 MFI |  |  |  |  |  |  |  |  | 
4 | 25-G9-G4-C12 (antibody, V domains shown, mouse monoclonal hybridoma antibody) VH: EVQLVESGGDLVKPGGSLKLSCAASGFTFSSHGMSWVRQTPDKRLEWVATINSGGYYTYYPDSVKGRFTISRDNAKNTLYLQMSSLKSEDTAMYYCARGQLGNWYFDVWGAGTTVTVSS VL: DIVMTQSPAIMSASPGEKVTITCSASSSVSYMHWFQQKPGTSPKLWIYSTSNLASGVPARFSGSGSGTSYSLTISRMEAEDAATYYCQQRSSYPLTFGAGTKLELK | 26 MFI | 383 MFI | 21.7 MFI | 22.9 MFI | 25.3 MFI | 32.8 MFI | 18.6 MFI | 25.2 MFI | 22.7 MFI | 24.3 MFI |  |  |  |  |  |  |  |  | 
5 | 7-B4-C1-C9 (antibody, V domains shown, mouse monoclonal hybridoma antibody) VH: EVQLQQSGTELVKPGASVKLSCKASGYTFTNYWMHWVKQRPGQGLEWIGEINPSNGRTNYNEKFKTKATLTVDKSSSTAYMQLSSLTSEDSAVYYCARSTYYGYDWYFDVWGAGTTVTVSS VL: DIVLTQSPSSMYASLGERVTITCKASQDINSYLSWFQQKPGKSPKTLIYRANRLLDGVPSRFSGGGSGQDYSLTISSLEHEDMGIYYCLQCDEFPHTFGGGTKLEIK | 27.7 MFI | 3950 MFI | 21.6 MFI | 17.8 MFI | 28.2 MFI | 32.2 MFI | 25.2 MFI | 26.1 MFI | 26.2 MFI | 27.5 MFI |  |  |  |  |  |  |  |  | 
6 | 36-F4-H1-D9 (antibody, V domains shown, mouse monoclonal hybridoma antibody) VH: EVKLLESGGGLVQPGGSLKLSCAASGFDFSRYWMIWVRQAPEKGLEWIGEINPDSSTINYTPSLKDKFIISRDNAKNTLYLQMSKVRSEDTALYYCARPYYRYDVGYFDVWGAGTTVTVSS VL: DIVMTQAPKVLLVSAGDRVTISCKASQSVSNAVVWYQQKPGQSPKLLIFYASNRYTGVPDRFTGSGYGTDFTFSISTVQAEDLAVYFCQQDYSSPWTFGGGTKLEIK | 25.7 MFI | 898 MFI | 16.5 MFI | 17 MFI | 20.3 MFI | 26.5 MFI | 18.6 MFI | 23.5 MFI | 20.7 MFI | 22.1 MFI |  |  |  |  |  |  |  |  | 
7 | ch2-H1-D7-E5-D5 (antibody, V domains shown) VH: EVHLVESGGGLVQPGGSRKLSCAASGFTFSSFGMHWVRQPPEKGLEWVAYISSGSSSIYYADTVKGRFTISRDNPKNTLFLQMTSLRSEDTAMYYCARGTGTGAMDYWGQGTSVTVSS VL: DIQMTQTTSSLSASLGDRVTISCRTSQDISNYLNWYQQKPDGTVKLLIYYTSKLHSGVPSRFSGSGSGTDYSLTISNLDQEDIATYFCQQGNTLPWTFGGGTKLEIK |  |  |  |  |  |  |  |  |  |  | 27.9% | 7.34 nM | 39.6% | no binding (tested: up to 66.67 nM) | 325 pg/mL | 10.3 fold | 1.6 nM | 38300 MFI | no binding
8 | ch10-H9-E3-G3 (antibody, V domains shown) VH: EVQRVESGGGLVQPGGSRKLSCAASGFTFSSFGMHWVRQAPEKGLEWVAYISSGSSAMYYADTVKGRFTISRDNPKNTLFLQMTSLRSEDTAMYYCARSDGKGAMDYWGQGTSVTVSS VL: DIQMTQTTSSLSASLGDRVTISCRASQDISNYLNWYQQKPDGTVKLLVYYTSRLHSGVPSRFSGSGSGTDYSLTISNLEQEDIATYFCQQGNTLPWTFGGGTKLEIK |  |  |  |  |  |  |  |  |  |  | 13.7% |  | 16.6% | no binding (tested: up to 66.67 nM) | 389 pg/mL | 12.3 fold | 1.41 nM | 45200 MFI | no binding
9 | ch26-H9-B9-B7 (antibody, V domains shown) VH: EVQRVESGGGLVQPGGSRKLSCAASGFTFSSFGMHWVRQAPEKGLEWVAYISSGSSTIYYADTVKGRFTISRDNPKNTLFLQMTSLRSEDTAMYYCARSDGKGAMDYWGQGTSVTVSS VL: DIVMTQSTSSLSASLGDRVTISCRASQDISNYLNWYQQKPDGTVKLLIYYTSRLHSGVPSRFSGSGSGTDYSLTISNLEQEDIATYFCQQGNTLPWTFGGGTKLEIK |  |  |  |  |  |  |  |  |  |  | 16.1% |  | 15.2% | no binding (tested: up to 66.67 nM) | 547 pg/mL | 17.3 fold | 1.66 nM | 46000 MFI | no binding
10 | ch27-D11-C2-A10 (antibody, V domains shown) VH: EVQLVESGGGLVQPGGSRKLSCAASGFTFSVFGVHWVRQAPEKGLEWVAYISSGSNTIHYADTVKGRFTISRDIPKNTLFLQMTSLRSEDTAMYYCARSSGTGAMDYWGQGTSVTVSS VL: DIQMTQSTSSLSASLGDRVSISCRASQDISNYLNWYQQKPDGAVKLLIYYTSRLHSGVPSRFSGSGSGTDYSLTISNLDQEDIATYFCQQGNTLPWTFGGGTKLELK |  |  |  |  |  |  |  |  |  |  | 12.1% |  | 20.2% | no binding (tested: up to 66.67 nM) | 666 pg/mL | 21.1 fold | 1.43 nM | 46800 MFI | no binding
